In patent US20140287419A1, “Compositions Having Dicamba Decarboxylase Activity and Methods of Use” (priority 2013, published 2014):
Where a chain is given by its changes, count along the chain named.

B1: SEQ ID NO:28: 5-carboxyvanillate decarboxylase, Sphingomonas paucimobilis (protein, listed as Sphingomonas paucimobilis)
chain: MARLIATEEAVTFQPVVDALRAHSRTDDASLDMILVRDVYGDEPARPAMIGRLSDVTGERLAEMDSNGVDMHLLSLTAPGVQMFDAETGTRLARIANDLMAQTVAANPTRFAGLGTFAPQDPASAAREIERVATQLRLNGLVINSHTNDLYYDDPFFHPVFEAIEASGLALYIHPRAPSKQIDRAFRDYGMNSAIWGYGIETSTNAVRMILSGLFDRFPRLKIVLGHMGEAIPFWLWRLDYMHGNATTFGGAPKLKLKPSEYFRRNFAITTSGVESHAALRYSIEVLGPENVMWAIDYPYQPMAPAVQFIRTAPIPEDVKAMVAGGNAARIFRIT
B2: SEQ ID NO:30: o-pyrocatechuate decarboxylase, Enterobacter aerogenes KCTC 2190 (protein)
chain: MARGKIALEEHVSTPENNRLWDSTGEANRNGSEYMQDVERRLLDRSIQLEEMAQRNIDHVILSLTSPGAQSILDKAKAVSFARDTNDFIVDNYVKPNPDKFSAFATLALQNPEAAAEELERAVKKLGMKGALINGYTNVKDSEHGLYLDDESMLVFWDKVNELNVPVYLHPREPLEGPARGIYTGYESLIGSAWGFAQETAVHAIRLMMSGLFDRYPNLNLVLGHLGEGLVHMLPRTQHRLYRQRFGCGLGKAEKPLMHYLQNNFIVTTSGHFNTHSLNNAIEVMGADRVMFSVDYPYEDIHQACDWFDPLEMDEGLKEKIAWGNASRVFNIK
modifications: Enterobacter aerogenes
B3: SEQ ID NO:31: reversible 2,6-dihydroxybenzoic acid decarboxylase, Agrobacterium sp. H13-3 (protein, listed as Agrobacterium sp.)
chain: MAQGKVALEEHFAIPETLQDSAGFVPGDYWKELQHRLLDIQDTRLKLMDAHGIETMILSLNAPAVQAIPDKTKAIEIARRANDVLAEECAKRPDRFLAFAALPLQDPDAATEELQRCVNDLGFVGALVNGFSQEGDGQTPLYYDLPQYRPFWGEVEKLDVPFYLHPRNPLPQDSRIYDGHPWLLGPTWAFAQETAVHALRLMASGLFDEHPRLNIILGHMGEGLPYMMWRIDHRNAWVKLPPRYPAKRRFMDYFNENFHITTSGNFRTQTLIDAILEIGADRILFSTDWPFENIDHASDWFNATSIAEADRVKIGRTNARRLFKLDGA
B4: SEQ ID NO:33: amidohydrolase, Rhizobium leguminosarum bv. viciae 3841 (protein, listed as Rhizobium leguminosarum)
chain: MAQGKIALEEHFAIPETLQDSAGFVPGDYWKELSARLLDIQEKRLRLMDAHGIEKMILSLNAPAVQAIPDRAKALEISRRANDFLAEQCVKNPNRFLGFAALPLQDPDAATQELQRCVTTMGFVGALVNGFSQEGDGTTPLYYDLPQYRSFWAEVEKLNVPFYLHPRNPLPQDSRIYAGHSWLMGPTWAFAQETAVHALRLMGSGLFDEHPALRIIVGHMGEGLPYMMWRIDNRNAWVKVEKSYPAKRPIADYFNENFYITTSGNFRTQSLIDAMLEIGADRILFSADWPFENIDHAANWFDSATISEADRLKIGRTNAVSLFKLDR
B5: SEQ ID NO:34: amidohydrolase, Cupriavidus necator N-1 (protein)
chain: MAQGKIGLEEHFAIPETLNDSAGFVPGDYWKELSRRLLDIQDDRLRQMDENGMEMMLLSLNAPAVQAVPDRKQACELAVRANDFLAEQVSRRPDRFQALAALPLQDPDFATVELTRCVNELGMRGALVNGFSQIDTPDNVVYYDAPQYASFWAAVEKLDVPFYLHPRNPIASWAQIYDGHPWLLGPTWAFGQETAVHALRLMASGLFDRHPALQIVLGHLGEGLPYSLWRIDNRNAWVKAPKTHPAKKTFRHYFQQNFHLTTSGNFHNQTLIDAILEIGADRILFSTDWPFENIDHAAKWFDSASISEADRTKIGRTNAMKLFKLVA
modifications: Cupriavidus necator
B6: SEQ ID NO:35: amidohydrolase, Burkholderia sp. CCGE1001 (protein)
chain: MAFKASRKIALEEHFAIDATVQDSAGFVPPSYWAELKRRLLDIHDRRIDEMDRNGVELMVLSLNAPTVQAVPNIKDAYDLSRRANDFLAEQIVKRPERFKGFAALPMQSPDLAARELERCVKELNFVGALVNGFSQVEESGTALYYDLPQYRQFWSVVQALDVPFYLHPRNPLPAHAPIYEGHPWLLGPTWAFGQETAVHALRLMGSGLFDEYPELKIILGHMGEGLPYSMWRIDNRNAWVETQPNYPAKKRIAEYFHKNFWLTTSGNFRTQTLIDAMLEIGSDRILFSTDWPFENVDHAAQWFDDAAISENDRIKIARTNAARLFKLEP
modifications: Burkholderia sp
B7: SEQ ID NO:36: hypothetical protein AGRO_1970, Agrobacterium sp. ATCC 31749 (protein, listed as Agrobacterium sp.)
chain: B3 chain with K31T, V84A, D94N, E112Q, T139I, M251V, N302H, A328R
B8: SEQ ID NO:43: amidohydrolase, Rhizobium leguminosarum bv. trifolii WSM2304 (protein, listed as Rhizobium leguminosarum)
chain: B4 chain with K31T, E42D, A50T, R71K, L75V, S150P, N159D, I294V
B9: SEQ ID NO:44: amidohydrolase, Mycobacterium avium 104 (protein, listed as Mycobacterium avium)
chain: MARIITVEEHFQHPEVSARVAELTGPAVEGLAEFGNAFSLDPDSTARLGGNRLAHMDQVGIDVQVVSHGNGSPGTLQHPEAVELCRRVNNDLAAQIAENPDRFRGFATLPLYDPAAAAEELRRCVGDLGFVGALIAGSYDGLFLDDERFDPILTAAEAVDFPIYVHPGLPEAPVSQRYYAGSWPASVHMMFSGPAFGWHAEAGIHIVRLILSGALDRHPTLKLLSGHWGELAAFYLERLDETLGLLPTGLERAPSDYYRQQVWITPSGMYNQNQLNFMTAELGAQRIIYSEDFPYVVRDNVSTFLEQAGLSEADTHAIAHTNAEALLRI
B10: SEQ ID NO:46: decarboxylase, Rhodococcus opacus B4 (protein, listed as Rhodococcus opacus)
chain: MARIITLEEHYLDPAIAAASAPLARELSPDFAAAYDPASGLSYTPSAQVLQDLGQRRIADMDTHGISMQVLSCLTTQQVPADVAPDLVRAANDTAAAAVRAHPDRFAAFAALPTTAPDAAATELARCIDDLGFVGTMINGRTDGEFLDAPRFDPILATAAARNVPIYLHPAVPPRATSDSNYAGLAPLVTARLQTSAWGWHQETAVHFLHLVLSGVLDRYPNLQFILGHWGEMIPFYLDRLDEALPQAVTNLDRTISDYVRENVYITPSGMFNQAQLQYCVETLGVDRILYSVDYPFIGNDGAVSFLDEANLPDEAKHQIAHQNTEKLLGL
B11: SEQ ID NO:47: hypothetical protein SOD_m00560, Serratia odorifera 4Rx13 (protein, listed as Serratia odorifera)
chain: MAKIICLEEHTLDKALVMASMPAALAQAPFLSDWGKTITDGNLPDRSRPQIEKNDLINVKGADIGRGRLDDMDEAGITMQVLSVGGFPHLISAAEGVDLNRAANDRLANAVNAHPDRFAAFATLPWAQPDAAEKELERAVKELGFKGALLNGRPSIHFLDHPDYDGLLARFNALGVPLYLHPGLPVRSVQQAYYSGFSDEVTARLSMFGWGWHHEAGIHLLRLILSGAFDKYPNLQVISGHWGEMLPFWLQRLDDSLPQAATGLRRTITQTFREQVYVTPSGMLTLPHFQFIYALLGAERILFSVDYPYQTLDGVKAFIQSLPVPEEAKEAIAFRNAERLFGLTS
B12: SEQ ID NO:48: amidohydrolase, Amycolatopsis mediterranei U32 (protein, listed as Amycolatopsis mediterranei)
chain: MASMKLYGLEEHFVTADVIEAWRRRDPGLAEPMMKWAVASDITPALLDVDGGRIAAMDDAGIDTTVLSLTTPGLQNLDAAEAVALQAPTNDLIAAAVRRHPGRFQGFATLATSAPAAAADELRRAVTELGLNGALVNANSRGRALDAPGFWDIYEAAEDLRAPVYLHPGVPVPAVTEAYYRGFGEPVNSMLATGAFGWHYDAGLTILRMIVAGVFDRFPGLQVILGHWGEVVLFYLDRVAAMDKLTALRRPIAEYFRSNIFITPGGISSHKYLRWSLETVGVERIMYASDYPFNTERAGSARRFLDTAPVDEAGRERIAYRNWEELIAGIRR
B13: SEQ ID NO:49: amidohydrolase 2, Streptomyces sp. SPB78 (protein, listed as Streptomyces sp.)
chain: MAKIIALEEHFSDPAVAKAGAARARALSPGFAASYSPASGLPYSPSPEVLENLAEKRLADMDAGGITMQVLSGLGAQTVPADVAPALVAGSNDKAAAAVRAHPDRFAAFAALPTATPEAAVAELDRSVNELGFVGTLIMGRTEGEFLDAPRFEPILARAAALKVPVFLHPGVPPREITDSNYAAGLPTGIGTRLQTAAWGWHQETAVHFLHLVHSGVLDRYPDLQFILGHWGEMIPFYLDRVDEALPQRATGLDRSFHEYFRENVYLAPSGMWSQAQLRFCLETVPLERIVFAVDYPFIGNEGAVPFLEKAELPQADKRKIAHENAERLLGL

assay: 14C assay with IPTG-induced recombinant E. coli cells (14CO2 capture from [14C]-carboxyl-labeled dicamba); settings: E. coli cell assay, 108 sequences tested

| Molecule | decarboxylation activity of dicamba |
| --- | --- |
| B1 | showed decarboxylation activity of dicamba |
| B2 | showed decarboxylation activity of dicamba |
| B3 | showed decarboxylation activity of dicamba |
| B4 | showed decarboxylation activity of dicamba |
| B5 | showed decarboxylation activity of dicamba |
| B6 | showed decarboxylation activity of dicamba |
| B7 | showed decarboxylation activity of dicamba |
| B8 | showed decarboxylation activity of dicamba |
| B9 | showed decarboxylation activity of dicamba |
| B10 | showed decarboxylation activity of dicamba |
| B11 | showed decarboxylation activity of dicamba |
| B12 | showed decarboxylation activity of dicamba |
| B13 | showed decarboxylation activity of dicamba |
